Assay results from patent US20150024411A1.
One block for each substance: values may come before it.

Tests used:
[1] = biological target: murine CD4 on splenocytes (murine) (UniProt P06332); assay: Pipette tip cell affinity chromatography on Strep-Tactin agarose functionalized with the GK1.5 Fab, murine splenocytes; starting sample 21,7% CD4+ (a) [b]
[2] = biological target: murine CD4 on splenocytes (murine) (UniProt P06332); assay: Pipette tip cell affinity chromatography on Strep-Tactin agarose functionalized with the GK1.5 Fab, murine splenocytes; starting sample 19,6% CD3+CD4+ (a) [b]
[3] = biological target: murine CD4 on splenocytes (murine) (UniProt P06332); assay: Pipette tip cell affinity chromatography on Strep-Tactin agarose functionalized with the GK1.5 Fab, murine splenocytes; starting sample 19,6% CD3+CD4+ (a) [c]
[4] = biological target: murine CD4 on splenocytes (murine) (UniProt P06332); assay: Pipette tip cell affinity chromatography on Strep-Tactin agarose functionalized with the GK1.5 Fab, murine splenocytes; starting sample 21,7% CD4+ (a) [c]
[5] = biological target: human CD8 on CD8+ T cells of PBMC or whole blood (human) (UniProt P01732); assay: cell affinity chromatography: PBMC pre-incubated with Fab, Superflow Strep-Tactin column, FACS of start and wash fractions
[6] = biological target: human CD8 on CD8+ T cells of PBMC or whole blood (human) (UniProt P01732); assay: cell affinity chromatography: Fab on Strep-Tactin Sephadex-50, human PBMC, flow cytometry of start and flow-through
[7] = biological target: human CD8 on CD8+ T cells of PBMC or whole blood (human) (UniProt P01732); assay: Flow cytometry of PBMC fractions from a Sephadex G50/Strep-Tactin column loaded with the CD8 Fab; the same marker reads 28 before selection (diagram A)
[8] = biological target: human CD8 on CD8+ T cells of PBMC or whole blood (human) (UniProt P01732); assay: Cell affinity chromatography on Strep-Tactin agarose functionalized with the anti-CD8 Fab, human whole blood; starting sample 0,041% CD8+ (a) [c]
[9] = biological target: human CD8 on CD8+ T cells of PBMC or whole blood (human) (UniProt P01732); assay: Cell affinity chromatography on Strep-Tactin agarose functionalized with the anti-CD8 Fab, human PBMC; starting sample 24,1% CD8+ (a) [b]
[10] = biological target: human CD8 on CD8+ T cells of PBMC or whole blood (human) (UniProt P01732); assay: Cell affinity chromatography on Strep-Tactin agarose functionalized with the anti-CD8 Fab, human whole blood; starting sample 0,041% CD8+ (a) [b]
[11] = biological target: human CD8 on CD8+ T cells of PBMC or whole blood (human) (UniProt P01732); assay: Cell affinity chromatography on Strep-Tactin agarose functionalized with the anti-CD8 Fab, human PBMC; starting sample 24,1% CD8+ (a) [c]
[12] = biological target: human CD4 on CD4+ cells of PBMC or whole blood (human) (UniProt P01730); assay: Pipette tip cell affinity chromatography on Strep-Tactin agarose functionalized with the m13B8.2 Fab, human PBMC; starting sample 52,3% CD4+ (a) [c]
[13] = biological target: human CD4 on CD4+ cells of PBMC or whole blood (human) (UniProt P01730); assay: Pipette tip cell affinity chromatography on Strep-Tactin agarose functionalized with the m13B8.2 Fab, human whole blood; starting sample 1,20% CD4+ (a) [b]
[14] = biological target: human CD4 on CD4+ cells of PBMC or whole blood (human) (UniProt P01730); assay: Pipette tip cell affinity chromatography on Strep-Tactin agarose functionalized with the m13B8.2 Fab, human whole blood; starting sample 1,20% CD4+ (a) [c]
[15] = biological target: human CD4 on CD4+ cells of PBMC or whole blood (human) (UniProt P01730); assay: Pipette tip cell affinity chromatography on Strep-Tactin agarose functionalized with the m13B8.2 Fab, human PBMC; starting sample 52,3% CD4+ (a) [b]

Chain of UniProt P01732 (P01732 22-235): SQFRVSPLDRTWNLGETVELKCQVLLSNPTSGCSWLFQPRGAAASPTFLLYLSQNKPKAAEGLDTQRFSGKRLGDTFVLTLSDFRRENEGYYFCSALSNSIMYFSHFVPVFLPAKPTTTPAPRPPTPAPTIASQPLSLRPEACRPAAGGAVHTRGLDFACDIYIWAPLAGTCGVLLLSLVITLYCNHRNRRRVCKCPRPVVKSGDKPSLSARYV
Chain of UniProt P06332 (P06332 27-457): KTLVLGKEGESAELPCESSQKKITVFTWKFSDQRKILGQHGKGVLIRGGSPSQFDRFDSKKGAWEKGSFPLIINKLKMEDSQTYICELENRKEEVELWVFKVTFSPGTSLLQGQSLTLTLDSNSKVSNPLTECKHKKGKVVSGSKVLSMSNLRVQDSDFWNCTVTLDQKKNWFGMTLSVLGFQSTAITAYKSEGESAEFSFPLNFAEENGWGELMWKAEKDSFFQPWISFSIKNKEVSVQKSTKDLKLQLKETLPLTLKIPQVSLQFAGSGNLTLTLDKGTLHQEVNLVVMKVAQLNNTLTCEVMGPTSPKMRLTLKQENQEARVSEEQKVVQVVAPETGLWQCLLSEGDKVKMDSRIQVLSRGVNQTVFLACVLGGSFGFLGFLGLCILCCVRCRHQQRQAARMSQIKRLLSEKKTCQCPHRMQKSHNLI

% CD4+ cells in the CD4-negative wash fraction [1]: 2.78% | % CD3+CD4+ cells in the CD4-negative wash fraction [2]: 0.977% | % CD3+CD4+ cells in the biotin eluate fraction [3]: 80.8% | % CD4+ cells in the biotin eluate fraction [4]: 84.7%
Substance: anti-CD4 Fab fragment with the wild-type variable domains of the CD4 binding antibody GK1.5 and two streptavidin binding modules at the C-terminus of the heavy chain

percent of CD8+ cells retarded on the column [5]: 77.8% | percent of PBMC that are CD8+ T-cells bound to the column [6]: 12.1% | percent of the CD8+ T-cells bound to the column [6]: 66% | % cells in the CD8-positive marker of the CD8 histogram, 1. elution fraction immediately with D-Biotin [7]: 67% | % cells in the CD8-positive marker of the CD8 histogram, 2. elution fraction after D-Biotin and subsequent washing [7]: 76% | % cells in the CD8-positive marker of the CD8 histogram, wash through fraction [7]: 10% | % CD8+ cells in the biotin eluate fraction [8]: 79.8% | % CD8+ cells in the CD8-negative wash fraction [9]: 4.83% | % CD8+ cells in the CD8-negative wash fraction [10]: 0.005% | % CD8+ cells in the biotin eluate fraction [11]: 88.2%
Substance: CD8 binding Fab fragment, heavy chain carboxy-terminally fused with a sequential arrangement of two streptavidin binding modules (IBA GmbH, catalogue number 6-8003)

% CD4+ cells in the biotin eluate fraction [12]: 99.4% | % CD4+ cells in the CD4-negative wash fraction [13]: 0.144% | % CD4+ cells in the biotin eluate fraction [14]: 70.4% | % CD4+ cells in the CD4-negative wash fraction [15]: 5.88%
Substance: mutant Fab fragment m13B8.2 (variable domains of the CD4 binding murine antibody 13B8.2 with light chain His91Ala and heavy chain Arg53Ala, human CH1 gamma1 and human kappa constant domains, two streptavidin binding modules at the C-terminus of the heavy chain)
